A value given as a limit tells only on which side of the number the result lay.

The record followed here is US20190375846A1 (ULTRAHUMAN ONE, published 2019).

Assay [1] has as its target T1, human GITR-Fc (human, UniProt Q9Y5U5 26-161).
T1 construct: Recombinant GITR-Fc; also called hGITR-Fc; hGITR; not shown: Fc part
T1 sequence (looked up): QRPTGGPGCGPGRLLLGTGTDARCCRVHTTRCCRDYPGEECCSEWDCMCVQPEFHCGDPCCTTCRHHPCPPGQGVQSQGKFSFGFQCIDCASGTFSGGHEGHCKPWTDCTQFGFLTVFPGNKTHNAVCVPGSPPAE
In words: direct titration ELISA, coated human GITR-Fc, IgG1. Here is the method:
(§1) To coat Greiner Bio-One High bind ELISA plates, target proteins were diluted to 1 μg/ml in carbonate buffer and added at 100 μl per well, at 4° C., o/n. Coated plates were washed 3× with PBS pH7.4, blocked with 1% BSA in PBS (380 μl/well) for 1 hr at RT, then washed 3× with PBS-Tween 20 (PBST). GITR antibodies (100 μl/well; diluted in PBST) were then added and then incubated 1 hr at RT. Plates were then washed 3× with PBST and goat anti-human kappa chain-HRP added (100 μl/well) at RT, for 1 hr. Plates were then washed 3× with PBST and twice with PBS before the addition of 100 μl TMB per well. Reactions were stopped by adding 100 μl 2M H₂SO₄/well and OD was read on a plate reader at 450 nm. IgG binding analysis via ELISA on negatively charged biomolecular surfaces were performed as previously described (see Mouquet et al., 2010, Nature 467: 591-595).
(§2) Retention of GITR-binding function in the purified IgG1 proteins was first examined by titration in direct binding ELISA against human GITR-Fc. […] Importantly, the >100-fold loss of binding function in the VH2 IgG family further illustrated that the HCDR1 could not be fully germ-lined a priori to match the native sequence of the human germline HCDR1 found in the framework used for grafting (IGHV3-7).

For assay [2], the target named is T1, human GITR-Fc. In words: direct titration ELISA on coated human GITR-Fc, IgG1 0.001-1 µg/ml, OD 450 nm. Here is the method: as §1, §2
The target in assay [3] is T2, cynomolgus monkey GITR-Fc (cynomolgus monkey (Macaca fascicularis)).
T2 construct: also called cyno GITR-Fc; cGITR-Fc
Description: SPR (Biacore), Fab over GITR-Fc captured on anti-human Fc, 37 C, 1:1 model. As for the experimental part: (§3) For affinity estimation, anti-human IgG Fc antibody was amine coupled at pH 5 onto three flow cells (Fc 1 to Fc 3) of a Biacore CM5 chip. The level of anti-Fc antibody immobilised onto the chip was approximately 550 RU. Human and cyno GITR-Fc and irrelevant receptor-Fc proteins were then captured onto the anti-Fc antibodies (by injecting over the antibody surface until nearly/completely saturated) in order that 80-100 RU were captured. Fab monomers were then injected over the Fc proteins captured on the chip at 37° C. a flow rate of 50 μl/min for 120 seconds, followed by Biacore running buffer (HBS-EP) being flowed over the chip for 240 seconds at 50 μl/min. The chip was regenerated between cycles using 2×15 second injections of 10 mM Glycine pH 2. The concentrations of Fab samples tested were 400, 200, 100, 50, 25, 12.5, and 6.25 nM. A Biacore running buffer control (0 nM) was also included as a control.
(§4) Monomeric Fab fragments were generated and flowed in the mobile phase on human and cyno GITR-Fc coated biosensor chips, to derive 1:1 binding values.

Assay [4] addresses T1, human GITR-Fc. The assay is described as above. As for the experimental part: as §3, §4

B1: MH-1 IgG1 (antibody, V domains shown)
VH: EVQLVESGGGLVQPGGSLRLSCAASGFSLSTSGMGMSWVRQAPGKGLEWVAHIWWDDEKYYVDSVKGRFTISRDNAKNSLYLQMNSLRAEDTAVYYCARTRQYFPFAYWGQGTLVTVSS
VL: EIVLTQSPATLSLSPGERATLSCRASQSVGSNLAWYQQKPGQAPRLLIYSASYRATGIPARFSGSGSGTDFTLTISSLEPEDFAVYYCQQYSTDPLTFGGGTKVEIK
notes: Human IgG1, designer clone; built as m28; also called Clone MH-1
As to B1, the binding result in assay [1] is on record as “binds”.

B2: VH3/VL3 IgG1 (antibody, V domains shown)
VH: EVQLVESGGGLVQPGGSLRLSCAASGFSLSTSGMGVGWVRQAPGKGLEWLAHIWWDDDKYYVDSVKGRFTISRDNAKNSLYLQMNSLRAEDTAVYYCARTRRYFPFAYWGQGTLVTVSS
VL: DIQMTQSPSSLSASVGDRVTITCRASQNVGTNVAWYQQKPGKAPKLLIYSASYRYSGVPSRFSGSGSGTDFTLTISSLQPEDFATYYCQQYNTDPLTFGGGTKVEIK
notes: Human IgG1; also called VH3 family
On to B2, for which the binding result in assay [2] is “binds”.

B3: MH-2 IgG1 (antibody, V domains shown)
VH: EVQLVESGGGLVQPGGSLRLSCAASGFSLSTSGYGVSWVRQAPGKGLEWVAHIWWDDEKYYVDSVKGRFTISRDNAKNSLYLQMNSLRAEDTAVYYCARTRQYFPFAYWGQGTLVTVSS
VL: EIVLTQSPATLSLSPGERATLSCRASQSVGSNLAWYQQKPGQAPRLLIYSASYRATGIPARFSGSGSGTDFTLTISSLEPEDFAVYYCQQYSTDPLTFGGGTKVEIK
notes: Human IgG1, designer clone; built as m28; also called Clone MH-2
Consider B3, for which the binding result in assay [1] was “binds”.

B4: MH-4 IgG1 (antibody, V domains shown)
VH: EVQLVESGGGLVQPGGSLRLSCAASGFSLSTSGYGMSWVRQAPGKGLEWVAHIWWDDEKYYVDSVKGRFTISRDNAKNSLYLQMNSLRAEDTAVYYCARTRQYFPFAYWGQGTLVTVSS
VL: EIVLTQSPATLSLSPGERATLSCRASQSVGSNVAWYQQKPGQAPRLLIYSASYRATGIPARFSGSGSGTDFTLTISSLEPEDFAVYYCQQYSTDPLTFGGGTKVEIK
notes: Human IgG1, designer clone; built as m28; also called Clone MH-4
Regarding B4, the binding result in assay [1] was “binds”.

B5: MH-3 IgG1 (antibody, V domains shown)
VH: EVQLVESGGGLVQPGGSLRLSCAASGFSLSTSGYGMSWVRQAPGKGLEWVAHIWWDDEKYYVDSVKGRFTISRDNAKNSLYLQMNSLRAEDTAVYYCARTRQYFPFAYWGQGTLVTVSS
VL: EIVLTQSPATLSLSPGERATLSCRASQNVGSNLAWYQQKPGQAPRLLIYSASYRATGIPARFSGSGSGTDFTLTISSLEPEDFAVYYCQQYSTDPLTFGGGTKVEIK
notes: Human IgG1, designer clone; built as m28; also called Clone MH-3
For B5, the binding result in assay [1] is on record as “binds”.

B6: VH1/VL3 IgG1 (antibody, V domains shown)
VH: QVTLRESGPALVKPTQTLTLTCTFSGFSLSTSGMGVGWIRQPPGKALEWLAHIWWDDDKYYNPSLKSRLTISKDTSKNQVVLTMTNMDPVDTATYYCARTRRYFPFAYWGQGTLVTVSS
VL: DIQMTQSPSSLSASVGDRVTITCRASQNVGTNVAWYQQKPGKAPKLLIYSASYRYSGVPSRFSGSGSGTDFTLTISSLQPEDFATYYCQQYNTDPLTFGGGTKVEIK
notes: Human IgG1; also called VH1 family
For the molecule B6, the binding result in assay [2] was “binds”.

B7: VH2/VL3 IgG1 (antibody, V domains shown)
VH: EVQLVESGGGLVQPGGSLRLSCAASGFTFSSYWMSWVRQAPGKGLEWLAHIWWDDDKYYVDSVKGRFTISRDNAKNSLYLQMNSLRAEDTAVYYCARTRRYFPFAYWGQGTLVTVSS
VL: DIQMTQSPSSLSASVGDRVTITCRASQNVGTNVAWYQQKPGKAPKLLIYSASYRYSGVPSRFSGSGSGTDFTLTISSLQPEDFATYYCQQYNTDPLTFGGGTKVEIK
notes: Human IgG1; also called VH2 family
As for B7, in assay [1], the “fold loss of binding function (against mVH/mVL IgG)” value (from here on “fold loss … (against mVH/mVL IgG)”) is over 100 fold.

B8: VH4/VL1 IgG1 (antibody, V domains shown)
VH: EVQLVQSGAEVKKPGESLKISCKGSGFSLSTSGMGVGWVRQMPGKGLEWLAHIWWDDDKYYSPSFQGQVTISADKSISTAYLQWSSLKASDTAMYYCARTRRYFPFAYWGQGTLVTVSS
VL: EIVMTQSPATLSVSPGERATLSCKASQNVGTNVAWYQQKPGQAPRLLIYSASYRYSGIPARFSGSGSGTEFTLTISSLQSEDFAVYYCQQYNTDPLTFGGGTKVEIK
notes: Human IgG1; also called VH4 family
Take B8: in assay [2], the binding result was “binds”.

B9: VH3/VL1 IgG1 (antibody, V domains shown)
VH: EVQLVESGGGLVQPGGSLRLSCAASGFSLSTSGMGVGWVRQAPGKGLEWLAHIWWDDDKYYVDSVKGRFTISRDNAKNSLYLQMNSLRAEDTAVYYCARTRRYFPFAYWGQGTLVTVSS
VL: EIVMTQSPATLSVSPGERATLSCKASQNVGTNVAWYQQKPGQAPRLLIYSASYRYSGIPARFSGSGSGTEFTLTISSLQSEDFAVYYCQQYNTDPLTFGGGTKVEIK
notes: as for B2
As to B9, the binding result in assay [2] is recorded as “binds”.

B10: VH1/VL1 Fab (Fab, V domains shown)
VH: QVTLRESGPALVKPTQTLTLTCTFSGFSLSTSGMGVGWIRQPPGKALEWLAHIWWDDDKYYNPSLKSRLTISKDTSKNQVVLTMTNMDPVDTATYYCARTRRYFPFAYWGQGTLVTVSS
VL: EIVMTQSPATLSVSPGERATLSCKASQNVGTNVAWYQQKPGQAPRLLIYSASYRYSGIPARFSGSGSGTEFTLTISSLQSEDFAVYYCQQYNTDPLTFGGGTKVEIK
notes: also called VH1/VL1 Fab fragment
B10: in assay [3], the Kd came out at 270 nM, the koff was determined as 0.0061 s⁻¹ and the kon came out at 22000 M⁻¹ s⁻¹. In assay [4], this molecule returned a Kd of 110 nM, a koff of 0.0051 s⁻¹ and a kon of 45000 M⁻¹ s⁻¹.

B11: VH4/VL3 IgG1 (antibody, V domains shown)
VH: EVQLVQSGAEVKKPGESLKISCKGSGFSLSTSGMGVGWVRQMPGKGLEWLAHIWWDDDKYYSPSFQGQVTISADKSISTAYLQWSSLKASDTAMYYCARTRRYFPFAYWGQGTLVTVSS
VL: DIQMTQSPSSLSASVGDRVTITCRASQNVGTNVAWYQQKPGKAPKLLIYSASYRYSGVPSRFSGSGSGTDFTLTISSLQPEDFATYYCQQYNTDPLTFGGGTKVEIK
notes: as for B8
For the molecule B11, in assay [2], the binding result was “binds”.

B12: VH2/VL1 IgG1 (antibody, V domains shown)
VH: EVQLVESGGGLVQPGGSLRLSCAASGFTFSSYWMSWVRQAPGKGLEWLAHIWWDDDKYYVDSVKGRFTISRDNAKNSLYLQMNSLRAEDTAVYYCARTRRYFPFAYWGQGTLVTVSS
VL: EIVMTQSPATLSVSPGERATLSCKASQNVGTNVAWYQQKPGQAPRLLIYSASYRYSGIPARFSGSGSGTEFTLTISSLQSEDFAVYYCQQYNTDPLTFGGGTKVEIK
notes: Human IgG1; The dash printed in the HCDR1 of VH2 is an alignment gap; also called VH2 family
Regarding B12, in assay [1], the “fold loss … (against mVH/mVL IgG)” value is over 100 fold.

B13: VH4/VL2 IgG1 (antibody, V domains shown)
VH: EVQLVQSGAEVKKPGESLKISCKGSGFSLSTSGMGVGWVRQMPGKGLEWLAHIWWDDDKYYSPSFQGQVTISADKSISTAYLQWSSLKASDTAMYYCARTRRYFPFAYWGQGTLVTVSS
VL: EIVLTQSPATLSLSPGERATLSCRASQNVGTNVAWYQQKPGQAPRLLIYSASYRYSGIPARFSGSGSGTDFTLTISSLEPEDFAVYYCQQYNTDPLTFGGGTKVEIK
notes: as for B8
Regarding B13, the binding result in assay [2] was “binds”.

B14: VH1/VL2 IgG1 (antibody, V domains shown)
VH: QVTLRESGPALVKPTQTLTLTCTFSGFSLSTSGMGVGWIRQPPGKALEWLAHIWWDDDKYYNPSLKSRLTISKDTSKNQVVLTMTNMDPVDTATYYCARTRRYFPFAYWGQGTLVTVSS
VL: EIVLTQSPATLSLSPGERATLSCRASQNVGTNVAWYQQKPGQAPRLLIYSASYRYSGIPARFSGSGSGTDFTLTISSLEPEDFAVYYCQQYNTDPLTFGGGTKVEIK
notes: as for B6
For B14, in assay [2], the binding result is recorded as “binds”.

B15: VH2/VL2 IgG1 (antibody, V domains shown)
VH: EVQLVESGGGLVQPGGSLRLSCAASGFTFSSYWMSWVRQAPGKGLEWLAHIWWDDDKYYVDSVKGRFTISRDNAKNSLYLQMNSLRAEDTAVYYCARTRRYFPFAYWGQGTLVTVSS
VL: EIVLTQSPATLSLSPGERATLSCRASQNVGTNVAWYQQKPGQAPRLLIYSASYRYSGIPARFSGSGSGTDFTLTISSLEPEDFAVYYCQQYNTDPLTFGGGTKVEIK
notes: as for B7
For the molecule B15, the “fold loss … (against mVH/mVL IgG)” value in assay [1] is over 100 fold.
